Consider 167 variants from the RNAGym collection of RNA variant scans (doi:10.7554/elife.90254).

The labels stand for the following.
B1: LINE1-full (parent)
chain: UACGUAGGUGGUUUUCCCCUGAUAGUGCUAAGGGGGCCUGGAAGUUUGGACUGGGCAGAGCUCAACACAGCGUGGCAAAGUGGCUGUGGCUAGACUGCCUCUCUGGAUUCCUCGUCACUCAGCAGGGCAUCUCUGAGAGAAAUGCC

Variants of B1 are the subject of the series. In words: self-cleavage, relative activity (ratio to wild type); higher = more cleavage; in vitro, sequencing; the parent is a self-cleaving ribozyme.
As to U39A G72A, the self-cleavage is 1.81. For G40A A77G, the self-cleavage came to 1.02. For G41A A124U the value was 1.08. In the case of U39C A124U it was 1.26. For G40A A59G the value was 0.06; for C38A U143G, 1.43; for C37U A138G, 1.2. Consider C37U U39C, for which the self-cleavage stood at 1.26. In the case of C37U U39A it was 1.12; in that of C37G U112C, 0.28. In the case of C38U A136U it was 1.08; in that of C38U G41U, 1.21. In the case of U39G A138G it was 1.01; in that of U39C C116U, 1.05. Turning to G40A U46C, the self-cleavage amounted to 1.4. In the case of G40A U46A it was 1.23; in that of U39G U85A, 0. For U39G U85C the value was 0.14; for C37G A94G, 0.32; for G40A A78U, 1.96. In the case of U39A U104C it was 1.57.

With G40A A79U, the self-cleavage was found to be 1.13. Turning to U39A A92U, the self-cleavage worked out at 0.57. In the case of U39A A92G it was 0.1. For G40C C146U the value was 1.54.

Consider C37A U143C, for which the self-cleavage came out at 0.75. U39A A57U: the self-cleavage is 0.12.

In the case of U39A A57G, the self-cleavage turned out to be 0.87. Take U39C G40A: the self-cleavage amounted to 0.73. In the case of U39C G40C it was 1.48; in that of C38U A43G, 0.81.

As to G40A A117G, the self-cleavage stood at 1.03. In the case of G40A U91C it was 0.21; in that of U39A G53U, 1.63; in that of G40U A92G, 0.02.

Consider U39C U112C, for which the self-cleavage stood at 1.24. For U39C A57U the value was 0.06.

Consider G40A U81C, for which the self-cleavage came to 1.04. For G36U U52A the value was 0.64. In the case of C37G it was 1.13; in that of C37A, 1.04; in that of C37U, 1.23. With C38U U45C, the self-cleavage was found to be 1.39. Consider U39C C113U, for which the self-cleavage is 1.26.

As to C37G U130G, the self-cleavage is 0.68. Take C37G A67U: the self-cleavage came to 0.12. In the case of C37U U115C it was 1.67; in that of C37A U47A, 1.12; in that of C37U U109A, 1.24. Regarding G41A A140G, the self-cleavage stood at 1.05. With C37U A107G, the self-cleavage was 1.07. For the variant C37U U45C, the self-cleavage was found to be 1.02. For G41A A136U the value was 1.53.

In the case of G41A A129U, the self-cleavage was determined as 1.42.

Regarding C37U U143A, the self-cleavage stood at 1.14. In the case of U39A U132C it was 1.38; in that of G40U U85C, 0.13. In the case of U39A A142C it was 1.59; in that of G36U U143C, 1.16. In the case of G40A C131U it was 0.76; in that of G36U A107G, 0.9. With U39A A129U, the self-cleavage is 1.65. In the case of U39A A129G it was 1.27. In the case of C37U U112A it was 1.07; in that of U39A U47A, 0.93. For U39C U62C the value was 0.09; for G40A U104A, 0.75; for G40A A43G, 1. As to C38U U47C, the self-cleavage turned out to be 0.93. As for U39C U143C, the self-cleavage was 1.33. In the case of U39C U143A it was 1.01. In the case of U39C G127U it was 0.87. In the case of U39A U115A it was 1.42.

On to U39A U115C, for which the self-cleavage turned out to be 1.31. In the case of C37G U87C it was 0.2; in that of U39A A67G, 0.43. For U39A A67U the value was 0.07; for C37A A92C, 0.2; for C38A U130C, 1.41. In the case of U39C G53U it was 1.26; in that of U39G A67G, 1.2; in that of C37G A79G, 0.85. For U39A A94G, the self-cleavage is 0.36.

As to G40A A69G, the self-cleavage is 0.49. For the variant U39A G89A, the self-cleavage is 0.06. In the case of C37A U96C, the self-cleavage is 0.08.

Turning to C38A A141U, the self-cleavage was 1.49. For C38U A69G the value was 0.49. In the case of G36U U62A it was 0.03. For U39G U45G the value was 1.05; for U39G A92G, 0; for U39G A92U, 1.06.

Take G40A U87C: the self-cleavage was found to be 0.06. In the case of U39C G83U it was 0.52. Regarding C37U U91C, the self-cleavage came out at 0.27. For C38U C110A the value was 1.64. As to C38U A138G, the self-cleavage is 0.83.

As for C37U C146U, the self-cleavage came out at 1.27. For U39C C131U the value was 1. In the case of U39C U73A, the self-cleavage came out at 1. For U39C U73G the value was 1.08.

U39C U73C: the self-cleavage was determined as 2.09. On to U39A A78U, for which the self-cleavage amounted to 1.98. In the case of U39A A78G it was 1.38.

U39A U81A: the self-cleavage amounted to 2.08. For U39A A59G the value was 0.08; for U39A A59U, 1.19; for U39C A64U, 0.35. For C37U A142G the value was 1.52; for U39A U108C, 1.24; for U39C U102A, 1.03. For G36U U119A the value was 1.4; for C38U U134C, 1.14.

In the case of U39G A129U, the self-cleavage came to 1.44. Take C38U C95U: the self-cleavage turned out to be 0.21. For U39G A64G the value was 0.09; for G40A A57U, 0.05. For C37A U108C, the self-cleavage is 1.51. Turning to G40A G53A, the self-cleavage was determined as 0.74. U39A A117G: the self-cleavage was 1.39. As to C38A A69G, the self-cleavage worked out at 0.61. For G40A U119C the value was 0.84; for U39A G74A, 0.88; for C37G A142G, 1.25. For C38U U96A the value was 0.04; for C38U U96C, 0.17. For G41A A57U the value was 0.11; for G40U A140U, 1.79. Consider U39A C63U, for which the self-cleavage is 0.43. In the case of C38U U39A, the self-cleavage is 1.09. In the case of U39A U112C it was 1.38. For U39C A107G the value was 1.36; for U39C G86A, 0.09. In the case of U39A G106A it was 1.35. Turning to U39A U52C, the self-cleavage was found to be 1.72. For G40A A64C the value was 0.18; for G40A A64U, 0.38; for G40A U96A, 0.03. In the case of U39A U87C it was 0.22. In the case of U39C A79U it was 1.2; in that of U39G U109C, 1.87; in that of G40A A129C, 1.63.

For the variant U39C G55A, the self-cleavage is 0.08. Turning to U39A A65G, the self-cleavage came out at 0.05.

For U39A A65U, the self-cleavage came to 0.15. In the case of C37G U45A it was 0.85; in that of C37U A121G, 1.62; in that of U39A U96C, 0.19. In the case of U39A U96A it was 0.04; in that of U39A U96G, 0.14. C38U G60A: the self-cleavage came to 0.05. In the case of U39C A50G, the self-cleavage came to 0.77. In the case of C37G A65G it was 0; in that of U39A A107G, 1.42.

With U39A A107U, the self-cleavage came to 1.43.

For the variant C37U C56U, the self-cleavage is 0.11. Consider U39C U104C, for which the self-cleavage was 1.77. For C37U U96A the value was 0.04.

On to U39A A77G, for which the self-cleavage was determined as 2.32. Take U39A A138G: the self-cleavage amounted to 1.27.

U39A A138U: the self-cleavage came out at 1.75. In the case of C37U U130A it was 0.99; in that of U39A U143C, 1.42; in that of U39G U130C, 1.25.

Consider U39A U134C, for which the self-cleavage worked out at 1.3. In the case of U39C C123U it was 0.9; in that of G41A A69U, 0.06.
